Non-standard residues stand in square brackets, D forms with d. No end group written: not given here. *: point of attachment. curcumin = curcumin, a phytochemical attached to the lysine side chains; Biotin = O=C1N[C@H]2[C@H](CS[C@H]2CCCCC(=O)*)N1; Nle = CCCC[C@H](N)C(=O)O
Legend:
[1] = target: T1, sortilin expressed on cancer cells (SKOV3, ES-2 ovarian cancer cells) (UniProt Q99523 78-831, limits assumed)
T1 sequence (looked up): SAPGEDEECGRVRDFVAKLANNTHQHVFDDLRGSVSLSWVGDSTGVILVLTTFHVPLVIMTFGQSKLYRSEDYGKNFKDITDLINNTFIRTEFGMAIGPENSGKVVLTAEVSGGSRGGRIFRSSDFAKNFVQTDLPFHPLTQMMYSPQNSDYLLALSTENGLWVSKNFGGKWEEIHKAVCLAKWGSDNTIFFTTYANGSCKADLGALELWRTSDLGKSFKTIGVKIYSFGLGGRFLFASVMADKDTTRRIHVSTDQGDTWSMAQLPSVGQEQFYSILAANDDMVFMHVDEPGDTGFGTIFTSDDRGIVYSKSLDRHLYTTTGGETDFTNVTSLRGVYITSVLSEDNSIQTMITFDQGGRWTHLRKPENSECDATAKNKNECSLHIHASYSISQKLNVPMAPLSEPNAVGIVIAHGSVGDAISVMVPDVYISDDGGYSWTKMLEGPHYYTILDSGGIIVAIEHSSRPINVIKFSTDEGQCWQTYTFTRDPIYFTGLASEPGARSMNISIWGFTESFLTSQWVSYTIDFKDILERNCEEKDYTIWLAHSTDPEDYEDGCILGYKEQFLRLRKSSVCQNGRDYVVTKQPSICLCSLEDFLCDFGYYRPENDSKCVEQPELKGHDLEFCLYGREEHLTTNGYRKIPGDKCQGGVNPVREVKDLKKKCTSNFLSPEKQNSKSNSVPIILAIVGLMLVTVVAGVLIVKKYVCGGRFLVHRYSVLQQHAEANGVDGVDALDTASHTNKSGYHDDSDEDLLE

[2] = target: T1, sortilin expressed on cancer cells …; remark: listed apart in the source
[3] = target: T1, sortilin expressed on cancer cells …; remark: listed apart in the source
[4] = target: T1, sortilin expressed on cancer cells …; remark: listed apart in the source
[5] = target: T1, sortilin expressed on cancer cells …; test: cell-based or functional assay
[6] = target: T2, soluble form of sortilin (UniProt Q99523 78-755, limits assumed); test: SPR; biotinylated KBP-103 on a streptavidin chip, soluble sortilin injected
T2 construct: also called soluble sortilin; receptor sortilin
T2 sequence (looked up): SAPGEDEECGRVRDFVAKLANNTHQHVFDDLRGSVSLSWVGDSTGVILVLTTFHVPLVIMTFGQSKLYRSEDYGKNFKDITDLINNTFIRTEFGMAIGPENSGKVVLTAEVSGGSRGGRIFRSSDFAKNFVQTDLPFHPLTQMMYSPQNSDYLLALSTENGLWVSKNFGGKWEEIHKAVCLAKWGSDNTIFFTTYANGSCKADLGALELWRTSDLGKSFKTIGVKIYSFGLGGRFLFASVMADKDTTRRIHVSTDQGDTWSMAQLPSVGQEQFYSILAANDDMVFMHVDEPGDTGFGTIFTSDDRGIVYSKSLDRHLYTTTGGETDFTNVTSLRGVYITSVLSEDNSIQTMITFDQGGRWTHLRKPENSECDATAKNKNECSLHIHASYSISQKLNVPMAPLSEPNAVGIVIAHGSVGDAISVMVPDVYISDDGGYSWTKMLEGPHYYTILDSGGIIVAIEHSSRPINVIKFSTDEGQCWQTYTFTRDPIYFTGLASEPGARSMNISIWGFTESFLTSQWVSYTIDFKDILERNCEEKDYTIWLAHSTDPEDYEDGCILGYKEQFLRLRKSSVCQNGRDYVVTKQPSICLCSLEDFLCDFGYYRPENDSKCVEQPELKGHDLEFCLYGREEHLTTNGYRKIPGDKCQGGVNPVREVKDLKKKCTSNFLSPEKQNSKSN
Protocol: Biotinylated Katana peptide was immobilized on a streptavidin sensor chip. A. Soluble sortilin was then injected over the immobilized peptide. The surface plasmon resonance signal was then monitored over time.
Surface plasmon resonance (SPR) was first used to investigate whether these peptides could be recognized by sortilin. For this approach, biotin was added on the C-terminal end of the Katana-Biopharma peptide during peptide synthesis. The biotinylated-peptide (KBP-103) was then immobilized on a streptavidin sensor chip using recommended procedures from the manufacturer. Increasing concentrations of a soluble form of sortilin was then injected over the sensor chip. Interactions between immobilized KBP-103 and the receptor sortilin was then monitored in real time. A representative interaction curve is shown in FIG. 1, and from the sensorgram curves the affinity constant as well as Ka and Kd were determined and are indicated in Table 2. Affinity constants (KD, […]) were extracted from various injections using the BIA evaluation software.

**Q.** Which results are given for “Progranulin (from UniProt P28799 18-593) (ligand)”?
**A.** inhibition of KBB106 accumulation (% of control) in ovarian cancer cells by progranulin [1]: 52%; decrease of the late apoptosis induced by 2 uM KBA-201 in SKOV3 cells by 1.2 nM progranulin [2]: 55%; inhibition of KBC106 fluorescence intensity (RFU) in ES-2 cells by progranulin [continued) C] [3]: 81.5%

**Q.** Which decrease of the late apoptosis induced by 2 uM KBA-105 in SKOV3/Luc cells by 10 uM NT [4] does the source give for “Neurotensin (from UniProt P30990 151-163) (peptide)” here?
**A.** Its decrease of the late apoptosis induced by 2 uM KBA-105 in SKOV3/Luc cells by 10 uM NT is 47.5%.

**Q.** What about the decrease of the late apoptosis induced by 2 uM KBA-201 in SKOV3 cells by 10 uM NT [2] of the same molecule?
**A.** Its decrease of the late apoptosis induced by 2 uM KBA-201 in SKOV3 cells by 10 uM NT is 45.5%.

**Q.** And the inhibition of KBC106 fluorescence intensity (RFU) in ES-2 cells by neurotensin (bar NT) [continued) C] [3]?
**A.** The inhibition of KBC106 fluorescence intensity (RFU) in ES-2 cells by neurotensin (bar NT) [continued) C] was 52%.

**Q.** Ac-GVRAK(curcumin)AGVRN[Nle]FK(curcumin)SESY [KBC-106 (2:1): Acetyl-GVRAK(curcumin)AGVRN(Nle)FK(curcumin)SESY] was tested. Which “relative fluorescence (RFU) of ES-2 cells after KBC106 against unconjugated curcumin (live imaging)” value [5] did it give?
**A.** Its value is 2.3 fold.

B1: KBP-103: IKLSGGVQAKAGVINMFKSESYK(Biotin) (peptide)
peptide: IKLSGGVQAKAGVINMFKSESYK(Biotin)
notes: Immobilised on a streptavidin sensor chip in the SPR assay; also called biotinylated-peptide; Katana peptide
**Q.** B1 was tested. Which Kd [6] did it give?
**A.** Its Kd is 25.5 nM.

**Q.** What about the koff [6] of the same molecule?
**A.** Its koff is 0.0174 s⁻¹.

**Q.** What about the kon [6] of the same molecule?
**A.** The kon was 683000 M⁻¹ s⁻¹.

Reference: patent US20240199695A1 (TRANSFERT PLUS S E C, published 2024)
